1 protein from paper PMC10628517, “CXCL17 binds efficaciously to glycosaminoglycans with the potential to modulate chemokine signaling” (Frontiers in Immunology, 2023) can be followed below.

This data set deals with the molecule itself. As to the kind of experiment: reducing SDS-PAGE and Western blot; serial dilutions of recombinant CXCL17 (24–119), 1.25–10 μM, resolved by reducing SDS-PAGE and probed with anti-CXCL17; bands of 14 kDa and 28 kDa read as monomer and dimer; the 28-kDa species seen at 5 μM and above. A general note: A western blot detects proteins with antibodies after separation by electrophoresis.

B1: recombinant human CXCL17 (24–119) (natural protein, UniProt Q6UXB2 24-119, looked up)
chain: LNPGVARGHRDRGQASRRWLQEGGQECECKDWFLRAPRRKFMTVSGLPKKQCPCDHFKGNVKKTRHQRHHRKPNKHSRACQQFLKQCQLRSFALPL
notes: human CXCL17, residues 24-119 (Leu24–Leu119), the commercially available form without the predicted signal peptide; UniProt Q6UXB2; The text calls the protein on the blots commercially available; also called Leu24–Leu119 form of CXCL17; source: bought: R&D Systems; produced in E. coli
On to B1, for which the “ratio of monomer:dimer” value was ~3 monomer:dimer.
